Source: paper PMC4731787, “Structural basis for the recognition of two consecutive mutually interacting DPF motifs by the SGIP1 μ homology domain” (Scientific Reports, 2016)
Where two headings read alike, the source gives them in different places. Values belong to the molecule of their own block, whether it stands above or below them. Where no end group is shown, it is not given here. GST = glutathione S-transferase fusion tag

T1: SGIP1 μHD (residues 552 to 828) (Homo sapiens, UniProt Q9BQI5)
T1 construct: the SGIP1 μHD (residues 552 to 828); GST (N, cleaved yes); made in house; host or cells: Escherichia coli BL21-Gold (DE3) or Rosetta2
T1 sequence (Q9BQI5 552-828): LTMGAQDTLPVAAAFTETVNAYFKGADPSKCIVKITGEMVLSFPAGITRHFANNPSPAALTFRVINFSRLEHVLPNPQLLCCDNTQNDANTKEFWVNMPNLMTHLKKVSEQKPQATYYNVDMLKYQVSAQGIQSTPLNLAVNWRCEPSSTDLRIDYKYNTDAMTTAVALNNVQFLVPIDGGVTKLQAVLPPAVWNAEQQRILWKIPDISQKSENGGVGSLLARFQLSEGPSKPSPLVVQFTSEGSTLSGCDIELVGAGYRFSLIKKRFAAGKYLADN

B1: SGIP1 μ homology domain (residues 552 to 828) (domain or fragment, human, UniProt Q9BQI5-1 552-828, looked up)
chain: T1 sequence (Q9BQI5 552-828)
notes: A SeMet-substituted form (E. coli B834(DE3)) was used only for the structure of the domain alone; also called SGIP1 μHD; μHD; source: E. coli BL21-Gold (DE3) or Rosetta2, purified (Glutathione Sepharose, 3C protease cleavage on the column, Superdex 200)
B2: Eps15-661–720 (domain or fragment, human, UniProt P42566-1 661-720, looked up)
chain: QSTDPFATSSTDPFSAANNSSITSVETLKHNDPFAPGGTVVAASDSATDPFASVFGNESF
notes: Eps15, human, residues 661-720; source: E. coli, purified in the same manner as for the SGIP1 μHD
B3: Eps15-530–896 (domain or fragment, human, UniProt P42566-1 530-896, looked up)
chain: STSSSETANLNEHVEGQSNLESEPIHQESPARSSPELLPSGVTDENEVTTAVTEKVCSELDNNRHSKEEDPFNVDSSSLTGPVADTNLDFFQSDPFVGSDPFKDDPFGKIDPFGGDPFKGSDPFASDCFFRQSTDPFATSSTDPFSAANNSSITSVETLKHNDPFAPGGTVVAASDSATDPFASVFGNESFGGGFADFSTLSKVNNEDPFRSATSSSVSNVVITKNVFEETSVKSEDEPPALPPKIGTPTRPCPLPPGKRSINKLDSPDPFKLNDPFQPFPGNDSPKEKDPEIFCDPFTSATTTTNKEADPSNFANFSAYPSEEDMIEWAKRESEREEEQRLARLNQQEQEDLELAIALSKSEISEA
notes: also called C-terminal fragment of human Eps15; source: E. coli, purified (Ni Sepharose, thrombin, Glutathione Sepharose, 3C protease, Superdex 200); not shown: GST, N-terminal, cleaved; His tag, C-terminal, cleaved
B4: Eps15-661–790 (domain or fragment, human, UniProt P42566-1 661-790, looked up)
chain: QSTDPFATSSTDPFSAANNSSITSVETLKHNDPFAPGGTVVAASDSATDPFASVFGNESFGGGFADFSTLSKVNNEDPFRSATSSSVSNVVITKNVFEETSVKSEDEPPALPPKIGTPTRPCPLPPGKRS
notes: Eps15, human, residues 661-790 (limits from the fragment's name); source: E. coli, purified in the same manner as for the SGIP1 μHD
B5: appendage domain of human α-adaptin (residues 711 to 955) (domain or fragment, UniProt O95782-2 711-955, looked up)
chain: IGPPIPEADELLNKFVCKNNGVLFENQLLQIGVKSEFRQNLGRMYLFYGNKTSVQFQNFSPTVVHPGDLQTQLAVQTKRVAAQVDGGAQVQQVLNIECLRDFLTPPLLSVRFRYGGAPQALTLKLPVTINKFFQPTEMAAQDFFQRWKQLSLPQQEAQKIFKANHPMDAEVTKAKLLGFGSALLDNVDPNPENFVGAGIIQTKALQVGCLLRLEPNAQAQMYRLTLRTSKEPVSRHLCELLAQQF
notes: also called α-adaptin appendage domain; source: E. coli, purified in the same manner as for the SGIP1 μHD

Legend:
[1] = biological target: SGIP1 μ homology domain (residues 552 to 828) (human) (UniProt Q9BQI5); assay: ITC; VP-ITC, 25 °C, 50 mM Tris-HCl pH 8.0, 50 mM NaCl; for the majority the μHD (SGIP1, its mutants or FCHo1) in the cell, titrated with Eps15 fragments or peptides, for others the reverse (Supplementary Table 2); repeated twice, global fit with SEDPHAT, single-site or two-site model
[2] = biological target: T1, SGIP1 μHD (residues 552 to 828); assay: ITC of Eps15 fragments with the SGIP1 μHD; assay type: binding; conditions: for Kd: 50 mM Tris-HCl pH 8.0, 50 mM NaCl, global fit of two runs
Protocol: (§1) For the majority of the ITC experiments, the SGIP1 μHD, its mutants, or the FCHo1 μHD, in 50 mM Tris-HCl buffer (pH 8.0) containing 50 mM NaCl, was loaded in the sample cell, in a volume of 1.42 ml, and titrated with various Eps15-derived fragments or peptides in the same buffer, with an initial 5 μl injection and subsequent 10 μl injections, for a total of 25 injections. The titrations were performed while the samples were stirred at 310 r.p.m. at 25 °C. Each injection was followed by an interval of 4 min, to allow baseline stabilization. For the other ITC experiments indicated in Supplementary Table 2, the Eps15-derived fragments or peptides in the sample cell were titrated with the SGIP1 or FCHo1 μHD. All ITC experiments were performed on a VP-ITC microcalorimeter (MicroCal, LLC) and repeated twice, and the data were processed with the program NITPIC[42]. The two data sets from each ITC experiment were analyzed by global weighted least-squares fitting with the program SEDPHAT[43]. Figures for the ITC data were created with the program GUSSI (http://biophysics.swmed.edu/MBR/software.html). To obtain the values of the traditional stoichiometric parameter N in our ITC data analyses (Supplementary Table 2), we used the values of the parameters of the incompetent fractions of proteins and ligands. […] The values of the incompetent fractions are between 0 and 1, whereas the other parameter affecting the traditional parameter N, the number of sites, was fixed as 1 and 2, for the single- and two-site models, respectively. Thus, in the two-site model, the values of N for the first and second sites are identical in our ITC data analyses (Supplementary Table 2).

SGIP1 µHD A565E = assay: ITC of Eps15 fragments with the SGIP1 μHD A565E mutant; assay type: binding, human; conditions: for Kd: 25 °C, 50 mM Tris-HCl pH 8.0, 50 mM NaCl, mutant μHD in cell titrated with fragment, two runs
Protocol: as §1

SGIP1 µHD A563E = assay: ITC of Eps15 fragments with the SGIP1 μHD A563E mutant; assay type: binding, human; conditions: for Kd: 25 °C, 50 mM Tris-HCl pH 8.0, 50 mM NaCl, mutant μHD in cell titrated with fragment, two runs
Protocol: as §1

Eps15-530–896 = biological target: B3; assay: SEC; analytical gel filtration on Superdex 200, 50 mM Tris-HCl pH 8.0, 50 mM NaCl, 5 mM DTT, 5% glycerol; fractions on SDS-PAGE; Eps15-530–896 and μHD mixed 1:2.4; Eps15-530–896, μHD and appendage domain mixed 1:3:6; conditions: both partners purified
[3] = biological target: B5; assay: ITC; VP-ITC; α-adaptin appendage domain with Eps15 fragments; which of the two was in the cell is not told in the text (Supplementary Table 2); conditions: both partners purified
[4] = biological target: B1; assay: ITC; VP-ITC, 25 °C, 50 mM Tris-HCl pH 8.0, 50 mM NaCl; for the majority the μHD (SGIP1, its mutants or FCHo1) in the cell, titrated with Eps15 fragments or peptides, for others the reverse (Supplementary Table 2); repeated twice, global fit with SEDPHAT, single-site or two-site model; conditions: both partners purified
[5] = biological target: α-adaptin appendage domain (residues 711 to 955); assay: ITC of Eps15 fragments with the α-adaptin appendage domain; assay type: binding, human
[6] = 25 °C, μHD in cell titrated with fragment, single-site model
[7] = 25 °C, μHD in cell titrated with fragment, single-site model, ± 68.3% confidence interval
[8] = 25 °C, fragment in cell titrated with μHD, single-site model
[9] = 25 °C, fragment in cell titrated with μHD, two-site model, first site
[10] = 25 °C, fragment in cell titrated with μHD, two-site model, second site

fold reduction of the binding against the unreplaced fragment [1]: 2.4 fold
Molecule: Eps15 two-DPF fragment, Asp of the C-terminal DPF motif replaced with Asn (peptide)

fold reduction of the binding against the unreplaced fragment [1]: 3.4 fold
Molecule: Eps15 two-DPF fragment, Asp of the N-terminal DPF motif replaced with Asn (peptide)

-TΔS [2, 6]: -2.159 kcal/mol
ΔG [2, 6]: -8.444 kcal/mol
ΔH [2, 7]: -6.285 ± 0.144 kcal/mol
Kd (SGIP1 µHD A565E): below detection limit
Kd (SGIP1 µHD A563E): below detection limit
Molecule: GST-Eps15-628–644: GST-tagged Eps15 fragment, residues 628–644, 3 DPF motifs ({GST}-SDPFKDDPFGKIDPFGG)

-TΔS [2, 6]: -1.785 kcal/mol
ΔG [2, 6]: -8.175 kcal/mol
ΔH [2, 7]: -6.39 ± 0.179 kcal/mol
binding to SGIP1 μHD with Ala565 replaced by Glu (in words) (SGIP1 µHD A565E): abolished the binding
Kd (SGIP1 µHD A565E): below detection limit
binding to SGIP1 μHD with Ala563 replaced by Glu (in words) (SGIP1 µHD A563E): abolished the binding
Kd (SGIP1 µHD A563E): below detection limit
Molecule: GST-Eps15-628–654: GST-tagged Eps15 fragment, residues 628–654, 5 DPF motifs ({GST}-SDPFKDDPFGKIDPFGGDPFKGSDPFA)

Molecule: B1
binding result (Eps15-530–896): binds

Molecule: B2
binding result [3]: binds

Molecule: B3
Kd ([2]; 25 °C, Eps15 fragment in cell titrated with SGIP1 μHD, two-site model, second site, 68.3% confidence interval, read-out: Kd, second site): 27300 ± 15700 nM
Kd ([2]; 25 °C, Eps15 fragment in sample cell titrated with SGIP1 μHD, single-site model, ± 68.3% confidence interval, read-out: Kd): 4500 ± 2200 nM
-TΔS [2, 8]: 3.678 kcal/mol
ΔG [2, 8]: -7.296 kcal/mol
ΔH ([2]; 25 °C, fragment in cell titrated with μHD, single-site model, ± 68.3% confidence interval): -10.974 ± 0.504 kcal/mol
-TΔS [2, 9]: -4.297 kcal/mol
ΔG [2, 9]: -9.374 kcal/mol
ΔH ([2]; 25 °C, fragment in cell titrated with μHD, two-site model, first site, ± 68.3% confidence interval): -5.077 ± 0.308 kcal/mol
-TΔS, second site [2, 10]: 2.744 kcal/mol
ΔG, second site [2, 10]: -6.226 kcal/mol
ΔH, second site ([2]; 25 °C, fragment in cell titrated with μHD, two-site model, second site, 68.3% confidence interval): -8.97 ± 1.643 kcal/mol
N (binding ratio of Eps15 fragment to μHD) ([2]; fragment in cell titrated with μHD, single-site model, ± 68.3% confidence interval): 0.76 ± 0.11
N (binding ratio of Eps15 fragment to μHD) ([2]; fragment in cell titrated with μHD, two-site model, first site (N identical for both sites), ± 68.3% confidence interval): 0.96 ± 0.04
N, second site ([2]; fragment in cell titrated with μHD, two-site model, second site (N identical for both sites), ± 68.3% confidence interval): 0.96 ± 0.04
Kd of the high-affinity site (two-site model) [4]: ~130 nM

Molecule: B4
binding to the SGIP1 μHD (in words) [2]: could not detect the clear binding
Kd ([2]; 25 °C, μHD in sample cell titrated with Eps15 fragment, single-site model, ± 68.3% confidence interval): below detection limit
Kd for the α-adaptin appendage domain (in words) [5]: in the nanomolar range
Kd ([5]; 25 °C, appendage domain titrated with Eps15 fragment, single-site model, global fit of two runs, ± 68.3% confidence interval): 690 ± 80 nM
-TΔS ([5]; 25 °C, single-site model): 20.041 kcal/mol
ΔG ([5]; 25 °C, single-site model): -8.401 kcal/mol
ΔH ([5]; 25 °C, single-site model, ± 68.3% confidence interval): -28.442 ± 0.319 kcal/mol
binding result [3]: binds

Molecule: B5
binding result (Eps15-530–896): binds
